Assay results reported in the supplement of paper PMC9732359.
± gives the uncertainty stated by the source.

Assay: protein stability index of a GFP-peptide fusion (yeast GPS) (PSI 1-4); higher = more stable; sorted into four equal gates, so the index is relative within each strain
Procedure, shortened: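 Tiled 17-residue yeast protein peptides were fused downstream of GFP in a plasmid that also expresses Cherry, and the pooled library was carried in yeast. Mid-log cultures in leucine-free medium were sorted into four equal gates by GFP/Cherry fluorescence ratio, and plasmids from each gate were PCR-amplified and Illumina-sequenced, with reads assigned to strains by barcodes. The protein stability index for each peptide was each gate's read frequency times its gate number, summed.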

| Sequence | protein stability index (doa10∆) | protein stability index (pdr5∆) | protein stability index (san1∆) | protein stability index (ubr1∆) |
| --- | --- | --- | --- | --- |
| IEKTESVDKKVDSGEER [SWI3] | 3.26 ± 0.098 | 3.3 ± 0.14 | 3.36 ± 0.055 | 3.46 ± 0.066 |
| LQNKSFKSVLPIVLLNT [UBP6] | 1.91 ± 0.067 | 1.45 ± 0.1 | 1.87 ± 0.12 | 2.1 ± 0.072 |
| IQQHARYDCSFCGKKTV [RPL43A] | 2.71 ± 0.23 | 2.94 ± 0.1 | 2.81 ± 0.065 | 3.06 ± 0.066 |
| DKKQQTIDEQSQISPEK [RPN1] | 3.29 ± 0.11 | 3.46 ± 0.11 | 3.4 ± 0.063 | 3.26 ± 0.046 |
| IRDPLTQTGLLQDLEEA [RPC82] | 3.31 ± 0.23 | 3.2 ± 0.17 | 3.15 ± 0.28 | – |
| HTSSNSREIAQPSSSRY [SMB1] | 3.17 ± 0.11 | 2.97 ± 0.065 | 3.02 ± 0.054 | 3.22 ± 0.058 |
| IHLNELLTNDESAFENL [SNF12] | 2.73 ± 0.057 | 2.91 ± 0.052 | 2.88 ± 0.067 | 3.03 ± 0.053 |
| REIHNEAESQLRAAQQQ [FAS2] | 2.91 ± 0.088 | 2.36 ± 0.07 | 2.86 ± 0.076 | 2.91 ± 0.053 |
| VFHDPDHSMILPSGVLS [SMC3] | 1.71 ± 0.15 | 2.08 ± 0.089 | 2.04 ± 0.13 | 2 ± 0.047 |
| ASFFFMVMFMHMAKGLY [COB] | 1.86 ± 0.046 | 1.58 ± 0.038 | 1.67 ± 0.08 | 1.4 ± 0.037 |
| VKEQTEAAKKSEKKAKK [RPL34A] | 3.36 ± 0.13 | 3.48 ± 0.094 | 3.18 ± 0.038 | 3.31 ± 0.067 |
| QEQVYPDFKPWEHTAAE [SRB8] | 2.44 ± 0.16 | 2.94 ± 0.13 | 3.17 ± 0.076 | 2.93 ± 0.11 |
| LMATEYQDIEGGFEDVE [RPB2] | 3.43 ± 0.14 | 3.31 ± 0.11 | 3.49 ± 0.069 | 3.44 ± 0.099 |
| LHVLVAHKLKKSLDSIP [FAS2] | 2.31 ± 0.091 | 2.1 ± 0.088 | 1.83 ± 0.24 | 1.68 ± 0.073 |
| PASKQGYLITPPKHTEL [SSN2] | – | 3.31 ± 0.3 | 2.49 ± 0.17 | – |
| ELAQDPQTMEHYKQQIA [YCS4] | 2.31 ± 0.055 | 2.65 ± 0.077 | 2.1 ± 0.1 | 2.4 ± 0.06 |
| KYKQLLLKDDTYQLCVR [RPN3] | 1.46 ± 0.073 | 1.78 ± 0.29 | – | 1.6 ± 0.18 |
| AEEALEPSYIFEYLATV [PRE4] | 2.66 ± 0.059 | 2.44 ± 0.067 | 2.54 ± 0.061 | 2.73 ± 0.045 |
| LSDYIPGPYPNEQAARA [CYT1] | 2.1 ± 0.054 | 2.54 ± 0.05 | 2.4 ± 0.063 | 2.39 ± 0.05 |
| IKKKKKKSKNGTISKTG [SRP14] | 3.16 ± 0.19 | 3.17 ± 0.15 | 3.11 ± 0.1 | 3.54 ± 0.11 |

| Sequence | protein stability index (doa10∆) | protein stability index (pdr5∆) | protein stability index (san1∆) | protein stability index (ubr1∆) |
| --- | --- | --- | --- | --- |
| SNSDNCPEEFAESMCQE [SNF5] | 3.25 ± 0.065 | 3.33 ± 0.069 | 3.27 ± 0.041 | 3.01 ± 0.068 |
| FYSTNSQYFKFKNDFNS [RPN9] | 2.1 ± 0.067 | 2.11 ± 0.054 | 2.1 ± 0.094 | 2.5 ± 0.053 |
| TPNLWAEQPLPVSPLDI [RPS2] | 1.41 ± 0.045 | 2.07 ± 0.06 | 2.31 ± 0.056 | 1.58 ± 0.066 |
| FHIGYFKATIQILQGIC [RPO31] | 1.39 ± 0.042 | 1.48 ± 0.035 | 1.72 ± 0.062 | 1.54 ± 0.036 |
| NFNSSLHKRQQFSESTH [YJL039C/NUP192] | 3.12 ± 0.12 | 3.14 ± 0.08 | 2.82 ± 0.063 | 3.03 ± 0.061 |
| FPRNGKAPEAEQVLSAA [RPL13A] | 3.14 ± 0.098 | 2.76 ± 0.093 | 3.13 ± 0.1 | 2.77 ± 0.05 |
| LDTRKELWRKEQKLQTV [SMC3] | 1.79 ± 0.069 | 2.58 ± 0.081 | 2.83 ± 0.16 | 2.99 ± 0.058 |
| FLRTQFLKLYVLVKWTR [RGR1] | 1.46 ± 0.084 | 1.95 ± 0.065 | 1.63 ± 0.11 | 1.56 ± 0.06 |
| ANFKTSKKYQLADWRIR [RRP6] | 2.97 ± 0.1 | 3.05 ± 0.096 | 2.84 ± 0.15 | 2.92 ± 0.1 |
| RALVEHIIQAKADAQRE [RPL19A] | 1.67 ± 0.26 | – | – | – |
| ALLGDKIYNFGELLHHP [RPN9] | – | – | 2.36 ± 0.29 | – |
| TQDDFTTSVDVMLKGIV [SRP54] | 1.63 ± 0.1 | 2.23 ± 0.081 | 1.67 ± 0.12 | 1.51 ± 0.047 |
| KRQYVKQFLTKDLKFPL [RPL20A] | 3 ± 0.055 | 2.94 ± 0.061 | 2.76 ± 0.063 | 2.83 ± 0.04 |
| DVSVKMGNTKVHCRISC [RRP45] | 2.21 ± 0.14 | 2.28 ± 0.092 | 2.17 ± 0.061 | 2.09 ± 0.074 |
| TSTKDKNSSTSNTEPIP [MED1] | 3.17 ± 0.058 | 3.27 ± 0.061 | 3.21 ± 0.046 | 3.16 ± 0.041 |
| VRSAEYYAKKRAFTKKV [RPL16B] | 2.66 ± 0.1 | 2.18 ± 0.066 | 2.61 ± 0.091 | 3.1 ± 0.063 |
| MSVDIDKKASMIISGSR [ASC1] | 2 ± 0.24 | 1.95 ± 0.12 | 1.71 ± 0.23 | 1.99 ± 0.074 |
| NNIIRIQQLISQFLKRV [SNF11] | 2.1 ± 0.039 | 2.14 ± 0.057 | 2.13 ± 0.065 | 2.3 ± 0.045 |
| PLGKILLKGDNITLITS [SME1] | 1.9 ± 0.093 | 3.12 ± 0.13 | 1.89 ± 0.16 | 3.07 ± 0.061 |
| NNDVFTIGPYRARKDRM [SSN3] | 3.67 ± 0.27 | 3.11 ± 0.26 | 3.43 ± 0.14 | 3.32 ± 0.13 |
